Molecular target: T1, ZIKV envelope protein domain III-hFc fusion protein (ZIKV-DIII-hFc) (Zika virus strain MR766, UniProt Q32ZE1)
T1 chain: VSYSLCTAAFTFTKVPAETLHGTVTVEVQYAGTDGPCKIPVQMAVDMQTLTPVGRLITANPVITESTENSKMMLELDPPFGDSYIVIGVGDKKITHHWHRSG
Assay: BLI

B1: m302 IgG1 (antibody, V domains shown)
VH: EVQLVQSGGGLVKPGRSLRLSCAASGFTFSSYAMHWVRQAPGKGLEWVAVISYDGSNKYYADSVKGRFTISRDNSKNTLYLQMNSLRAEDTAVYYCAREIGDYYYYGMDVWGQGTLVTVSS
VL: EIVMTQSPATLSLSPGERATLSCRASQSVSSYLAWYQQKPGQAPRLLIYDASNRATGIPARFSGSGSGTDFTLTISSLQPEDFATYYCQQSYSTPLTFGGGTKVEIK
Work on B1 yielded a koff of 0.00177 s⁻¹.

— PMC5658772 (2017)
